In US7807387B2, “Biological agent that causes IL-6 receptor release” (Meyer Pharmaceuticals LLC, priority 2003, dated 2010):
Marks after values point to notes of the source that are not given here.

Tests used:
p55 TNF Receptor = p55 TNF Receptor (Homo sapiens, UniProt P19438); test: FRET peptide cleavage assay, p55 TNF receptor peptide; type: biochemical; conditions: Zn++ 0.1 mM, Ca++ 2 mM, corrected for EDTA, 37° C. for 3 hours
Experimental: (§1) Cytokine-specific proteolytic activity can rapidly be quantified by Fluorescence Resonance Energy Transfer (FRET). Peptides having the amino acid sequence of the TNF Receptor or other protein substrates are labeled at opposite ends with a fluorescence emitter and a fluorescence quencher. The peptide is then incubated with a source of receptor cleaving enzyme, and fluorescence is measured. The quenching group normally absorbs fluorescence from the emitter. But enzymatic cleavage of the peptide decouples the quenching group, and fluorescence emission increases proportionally.
(§2) The peptides used as substrates in the cleavage assay were taken from the known sites of proteolytic cleavage of the whole protein. The peptides were labeled with the fluorescence emitter (Edans-●) at the C-terminal, and the quenching hapten (Dabcyl-▴) at the N-terminal.
(§3) The assay is conducted in the presence of the metal cations Zn^++ (0.1 mM) and Ca^++ (2 mM), and corrected for cleavage in the presence of EDTA (20 mM). Dependence on divalent cations confirms that the enzyme activity measured in this assay is a metalloprotease. The assay mixture also contains a cocktail of protease inhibitors and bovine albumin. Cleavage is measured as the net change in fluorescence emission after incubating the enzyme with the peptide at 37° C. for 3 hours. […]

[1] = tested on: human IL-1 type 1 and type 2 receptors; test: FRET peptide cleavage assay, IL-1 receptor peptides; type: biochemical
Experimental: as §1, §2, §3

LPS-induced septic shock = test: LPS/galactosamine-induced septic shock model; type: in vivo, Balb/c mice
Experimental: A classic model for determining effectiveness of agents against cytokine-mediated inflammation is endotoxin-induced septic shock (Morrison et al., J Infect Dis 162:1063, 1990).
The septic shock experiment was conducted as follows. Female Balb/c mice were randomized by weight into 6 treatment groups. Sepsis was induced by injecting 10 μg LPS and 7 mg galactosamine in the lateral or dorsal caudal vein. Some of the groups were pretreated with 50,000 FU of MP8 simultaneously or 3 hours in advance of the LPS challenge to determine whether there was a protective effect.
FIG. 8 is a Kaplan-Meier survival curve, showing the mortality in each of the treatment groups in the study. Without any treatment or challenge, there is no effect on the animals, and the line stays at the top. Life-compromising challenge causes the line to fall to the bottom of the graph in a step-wise fashion as each animal succumbs. Treatment that is protective against the challenge maintains the line near the top of the graph.
The enzyme was administered in a volume of 110 μL at one hour before the LPS challenge.
Stability of the clinical effect of MP8 was determined in the septic shock model. Female Balb/c mice were injected with 300,000 FU of MP8 that had been stored for 4 days at −70° C., or 7 days at 4° C. One hour later, the mice were challenged with 10 μg LPS and 7 mg galactosamine as before.
In this example, durability of receptor cleavage in vivo was determined by treating animals subcutaneously up to three days in advance with 300,000 FU of MP8. The mice were then challenged with […] LPS and 7 mg galactosamine in the usual fashion.
Sepsis was induced in Balb/c mice by administering 10 μg LPS and […] galactosamine, as in Example 3. Randomized groups were pretreated with up to 40 μg MP8-FL2 one hours in advance of the LPS challenge.

[2] = tested on: Experimental Autoimmune Encephalomyelitis; test: Experimental Autoimmune Encephalomyelitis (EAE); type: in vivo, SJL/J mice; conditions: for Day of Onset (±SEM): p < 0.001; for Peak Clinical Score (±SEM): scale 0-5
Experimental: The EAE model (Brown et al., Lab. Invest. 45:278, 1981) was conducted as follows. Female SJL/J mice (6 weeks old) were randomized into 3 groups of 10. 2 mL of Myelin Proteolipid Peptide (PLP) was emulsified in 3 mL of Complete Freund's Adjuvant containing an additional 20 mg of M. tuberculosis H37Ra. On day 0, mice were immunized subcutaneously in the base of the tail and footpad with a total of 60 μg PLP. They were also given […] pertussis toxin i.p. on days 0 and 2. MP8 or saline control was administered s.c. every day from day −3 to day 20. Progression of the disease was measured up to day 21 on the following scale: 0≡normal; 1≡limp tail or hind limb weakness; 2≡both limp tail and hind limb weakness; 3≡partial hind limb paralysis; 4≡complete hind limb paralysis; 5≡moribund or sacrificed.

[3] = tested on: experimentally induced Asthma; test: Experimentally induced asthma (ovalbumin sensitization and aerosol challenge); type: in vivo, mice; conditions: treatment 1 h before aerosol challenge, 24 h and 48 h afterwards; lavage at 72 h
Experimental: Mice were sensitized on Days 0, 7, and 14 with 10 μg ovalbumin in 1% aluminum hydroxide. On Day 21, the mice were challenged with the allergen in aerosol form (5% wt/vol in saline). Treatment with MP8 or control was administered 1 h before the aerosol challenge, and 24 h and 48 h afterwards. On Day 24 (72 h after the challenge), lungs were ravaged under anesthesia with 2×0.5 mL buffer to recover cells in the alveolar fluid.

p75 TNF Receptor = target: T1, p75 TNF Receptor (Homo sapiens, UniProt P20333); test: Cleavage of cell surface p75 TNF receptor on THP-1 cells; type: cell-based; conditions: 45 minutes at 37° C.
T1 construct: endogenous in cells; host or cells: THP-1
T1 sequence (P20333 23-461): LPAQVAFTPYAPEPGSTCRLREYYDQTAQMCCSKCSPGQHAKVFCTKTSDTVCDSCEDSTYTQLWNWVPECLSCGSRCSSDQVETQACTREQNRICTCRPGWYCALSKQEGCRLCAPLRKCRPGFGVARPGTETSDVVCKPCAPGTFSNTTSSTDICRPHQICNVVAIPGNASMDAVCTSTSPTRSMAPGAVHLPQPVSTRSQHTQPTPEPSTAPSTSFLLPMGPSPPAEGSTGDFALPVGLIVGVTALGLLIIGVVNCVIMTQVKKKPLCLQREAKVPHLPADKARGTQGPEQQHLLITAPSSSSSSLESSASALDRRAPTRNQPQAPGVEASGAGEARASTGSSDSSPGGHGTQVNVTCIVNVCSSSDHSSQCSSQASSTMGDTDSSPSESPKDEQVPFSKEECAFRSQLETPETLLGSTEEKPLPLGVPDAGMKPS
Experimental: This cell line expresses both the p55 TNF receptor and the p75 TNF receptor. After incubating for 45 minutes at 37° C., the cells were washed, immunostained for cell surface receptor, and counted by flow cytometry.

[4] = 100,000 FU s.c. every day from day −3 to day 20
[5] = 300,000 FU s.c. every day from day −3 to day 20

B1: MP8: polypeptide having the sequence of SEQ. ID NO:41 (usually with a HIS tag); cytokine receptor releasing protein expressed in E. coli (protein, listed as Homo sapiens)
chain: WIQRIRHEGNSTVYEWRTGTEPSVVERPHLEELPEQVAEDAIDWGDFGVEAVSEGTDSGISAEAAGIDWGIFPESDSKDPGGDGIDWGDDAVALQITVLEAGTQAPEGVARGPDALTLLEYTETRNQFLDELMELEIFLAQRAVELSEEADVLSVSQFQLAPAILQGQTKEKMVTMVSVLEDLIGKLTSLQLQHLFMILASPRYVDRVTEFLQQKLKQSQLLALKKELMVQKQQEALEEQAALEPKLDLLLEKTKELQKLIEADISKRYSGRPVNLMGTSL
modifications: HIS tag
notes: ID NO:41 (usually with a HIS tag); cytokine receptor releasing protein expressed in E. coli
How did the “cleavage of p55 TNF receptor (R1) peptide” value (p55 TNF Receptor) turn out when B1 was run?
The value was “cleaves”.

What about the “cleavage of IL-1 receptor” value [1] of the same molecule?
The value was “cleaves”.

And the “protection against LPS-induced septic shock” value (LPS-induced septic shock; 50,000 FU, simultaneously with LPS challenge or 3 hours in advance)?
The value was “fully protective”.

What about the “clinical efficacy in septic shock model after storage” value (LPS-induced septic shock; 300,000 FU stored 4 days at −70° C. or 7 days at 4° C., one hour before challenge) of the same molecule?
Its value is “can be frozen without causing a loss in clinical efficacy”.

And the “protection against septic shock when administered days in advance” value (LPS-induced septic shock; 300,000 FU subcutaneously up to three days in advance)?
Its value is “able to protect most mice up to 3 days after administration”.

What about the “protection against LPS-induced septic shock” value (LPS-induced septic shock; 300,000 FU, one hour before LPS challenge) of the same molecule?
Its value is “completely protective”.

And the “protection against LPS-induced septic shock” value (LPS-induced septic shock; single dose of 30,000 FU, one hour before LPS challenge)?
Its value is “able to protect a proportion of the challenged subjects”.

And the “Incidence of Disease” value [2, 4]?
Its value is 5 out of 7.

And the “Day of Onset (±SEM)” value [2, 4]?
The value was 18.0 ± 0.8 ^a.

What about the “Peak Clinical Score (±SEM)” value [2, 4] of the same molecule?
Its value is 2.4 ± 0.7.

And the “Incidence of Disease” value [2, 5]?
The value was 3 out of 7.

And the “Day of Onset (±SEM)” value [2, 5]?
The value was 18.0 ± 2.5 ^a.

And the “Peak Clinical Score (±SEM)” value ([2]; 300,000 FU s.c. every day from day −3 to day 20, p < 0.01)?
Its value is 1.0 ± 0.5 ^b.

And the emergence of symptoms ([2]; delayed from 12 days)?
The emergence of symptoms was 18 days.

What about the “weight gain of treated animals” value ([2]; mouse, in vivo) of the same molecule?
The value was “continued to show normal weight gain”.

What about the proportion of eosinophils [3] of the same molecule?
Its proportion of eosinophils is “substantially reduced”.

And the “white blood cells migrating into the alveolar fluid” value [3]?
The value was “reduced the number of the white blood cells migrating into the alveolar fluid”.

And the “cleavage of p75 TNF receptor on the surface of cells” value (p75 TNF Receptor)?
The value was “cleaves”.
